Test results published in paper PMC12032424.

Columns and labels:
TDP-43 1-414 = TDP-43 1-414 (UniProt Q13148); test: sedimentation assay, supernatant by SDS-PAGE; details: reference: unmodified TDP1-414; sites S48
TDP-43 NTD, 1-80 [1] = target: TDP-43 NTD, 1-80 (UniProt Q13148); test: BS3 crosslinking, SDS-PAGE; details: reference: unmodified TDP1-80; sites S48
TDP-43 NTD, 1-80 [2] = target: TDP-43 NTD, 1-80 (UniProt Q13148); test: size exclusion chromatography; details: reference: unmodified TDP1-80; sites S48

TDP-43 1-414 (from UniProt Q13148) TDP1-414(pS48)
binding against the reference (TDP-43 1-414): weaker

TDP-43 NTD, 1-80 (from UniProt Q13148) TDP1-80(pS48)
binding against the reference (TDP-43 NTD, 1-80 [1]): weaker | binding against the reference (TDP-43 NTD, 1-80 [2]): weaker
